The labels stand for the following.
B1: human small vasohibin-binding protein (SVBP) (amino acids 2–66) (natural protein, UniProt Q8N300 2-66, looked up)
chain: DPPARKEKTKVKESVSRVEKAKQKSAQQELKQRQRAEIYALNRVMTELEQQQFDEFCKQMQPPGE
notes: the final model holds amino acids 26-53 (chain B); Expressed at the C-terminal end of the fusion MBP-His6-5xTEV-VASH1(56-310)-2xTEV-SVBP(2-66) and set free by TEV protease; Residues of the TEV site may be left at its N-terminus; source: E. coli One Shot BL21 Star (DE3) pLysS, purified (HisTrap FF, SP Sepharose, TEV cleavage, SP Sepharose, Superdex 200)
B2: human VASH1 core (VASH1c) region (amino acids 56–310) (domain or fragment)
chain: not shown
notes: vasohibin-1 (VASH1), human, core region, amino acids 56-310; the final model holds amino acids 56-304 (chain A); cut with TEV protease before crystallisation; Residues of the TEV sites may be left at the ends; also called vasohibin-1; source: E. coli One Shot BL21 Star (DE3) pLysS, purified (HisTrap FF, SP Sepharose, TEV cleavage, SP Sepharose, Superdex 200); not shown: MBP, N-terminal, cleaved; …

Data set [1] has as its target B2. Kind of data set: crystal structure; purified VASH1c–SVBP complex (17.7 mg/ml), sitting-drop vapor diffusion at 20°C, 0.16 M ammonium sulfate, 0.08 M sodium acetate pH 4.6, 20% PEG 4000, 20% glycerol; space group P6(1)22, 2.3 Å; heterotetramer formed by a crystallographic twofold axis. Conditions: both partners purified.
Data set [2] deals with the molecule itself. Described as above.

Here are results for 2 molecules from paper PMC7543661, “The crystal structure of the tetrameric human vasohibin-1–SVBP complex reveals a variable arm region within the structural core” (Acta Crystallographica. Section D, Structural Biology, 2020).

For B1, the binding result in data set [1] is on record as “binds”.

On to B2, for which the binding result in data set [2] is “binds”.
